From patent US20230086210A1 (Hoffmann-La Roche, published 2023)

Assays:
[1] = biological target: T1, human PD-L1 on MKN45-huPD-L1 cells (human, UniProt Q9NZQ7 19-290); assay: flow cytometry on MKN45-huPD-L1 cells, PE-conjugated goat F(ab')2 anti-human Fcγ, geo mean of fluorescence, baseline corrected
T1 construct: The entry is the complete precursor; also called MKN45-PD-L1; human PD-L1-expressing MKN45 cells
Procedure: All values are baseline corrected by subtracting the baseline values of the blank control (e.g. no primary only secondary detection antibody).
Cells were incubated for 30 min at 4° C. and then washed twice with 80 μL/well DPBS. […] Cells were washed twice with 80 μL/well DPBS and then fixed in 30 μL/well DPBS containing 1% formaldehyde for at least 15 minutes.

[2] = biological target: T1, human PD-L1 on MKN45-huPD-L1 cells; assay: flow cytometry on MKN45-huPD-L1 cells, area under the binding curve; set-up: unit not given beside the values
[3] = biological target: human 4-1BB on Jurkat-hu4-1BB-NFκB-luc2 reporter cells (human, UniProt Q07011 24-255); assay: cell-based or functional assay; set-up: AUC of NFκB-activation-induced Luciferase activity curve: unit not given beside the values
human 4-1BB on Jurkat-hu4-1BB-NFκB-luc2 reporter cells, sequence (Q07011 24-255): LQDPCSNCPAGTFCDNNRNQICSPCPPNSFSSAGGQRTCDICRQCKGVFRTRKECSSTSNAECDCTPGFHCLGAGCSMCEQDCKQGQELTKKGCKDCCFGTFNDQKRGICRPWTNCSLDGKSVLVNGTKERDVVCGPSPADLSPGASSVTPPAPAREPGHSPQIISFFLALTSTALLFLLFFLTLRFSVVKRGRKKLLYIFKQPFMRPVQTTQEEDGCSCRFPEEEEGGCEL

T1 sequence (Q9NZQ7 19-290 limits assumed): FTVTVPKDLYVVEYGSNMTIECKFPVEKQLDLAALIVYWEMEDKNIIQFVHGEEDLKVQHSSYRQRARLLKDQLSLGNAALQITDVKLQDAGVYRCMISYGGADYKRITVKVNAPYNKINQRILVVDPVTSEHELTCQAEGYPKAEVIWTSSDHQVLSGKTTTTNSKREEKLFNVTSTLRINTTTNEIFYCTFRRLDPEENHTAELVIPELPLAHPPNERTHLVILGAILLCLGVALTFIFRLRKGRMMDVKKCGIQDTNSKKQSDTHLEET

B1: 4-1BB huIgG1 P329G LALA (anti-human 4-1BB clone 20H4.9 as huIgG1 P329G LALA) (antibody, V domains shown)
VH: QVQLQQWGAGLLKPSETLSLTCAVYGGSFSGYYWSWIRQSPEKGLEWIGEINHGGYVTYNPSLESRVTISVDTSKNQFSLKLSSVTAADTAVYYCARDYGPGNYDWYFDLWGRGTLVTVSS
VL: EIVLTQSPATLSLSPGERATLSCRASQSVSSYLAWYQQKPGQAPRLLIYDASNRATGIPARFSGSGSGTDFTLTISSLEPEDFAVYYCQQRSNWPPALTFGGGTKVEIK
notes: Human IgG1 with P329G L234A L235A
binding result [1]: no binding (tested: 100 nM) | AUC [2]: 432 | AUC of NFκB-activation-induced Luciferase activity curve [3]: 8870 | EC50 of NFκB-activation-induced Luciferase activity curve [3]: 0.32 nM

B2: 4-1BB×PD-L1 2+1 (bispecific agonistic 4-1BB×PD-L1 antibody with bivalent binding to 4-1BB (clone 20H4.9) and monovalent binding to PD-L1, Head to Head 2+1 … (bispecific antibody)
heavy 1: QVQLQQWGAGLLKPSETLSLTCAVYGGSFSGYYWSWIRQSPEKGLEWIGEINHGGYVTYNPSLESRVTISVDTSKNQFSLKLSSVTAADTAVYYCARDYGPGNYDWYFDLWGRGTLVTVSSASTKGPSVFPLAPSSKSTSGGTAALGCLVEDYFPEPVTVSWNSGALTSGVHTFPAVLQSSGLYSLSSVVTVPSSSLGTQTYICNVNHKPSNTKVDEKVEPKSCDKTHTCPPCPAPEAAGGPSVFLFPPKPKDTLMISRTPEVTCVVVDVSHEDPEVKFNWYVDGVEVHNAKTKPREEQYNSTYRVVSVLTVLHQDWLNGKEYKCKVSNKALGAPIEKTISKAKGQPREPQVCTLPPSRDELTKNQVSLSCAVKGFYPSDIAVEWESNGQPENNYKTTPPVLDSDGSFFLVSKLTVDKSRWQQGNVFSCSVMHEALHNHYTQKSLSLSP
heavy 2: not shown
light 1: not shown
light 2: not shown
AUC of NFκB-activation-induced Luciferase activity curve [3]: 135000 | EC50 of NFκB-activation-induced Luciferase activity curve [3]: 0.037 nM

B3: 4-1BB×PD-L1 1+1 (bispecific antibody with monovalent binding to 4-1BB (clone 20H4.9) and monovalent binding to PD-L1) (bispecific antibody)
heavy 1: B2 heavy 1
heavy 2: not shown
light 1: not shown
light 2: not shown
AUC of NFκB-activation-induced Luciferase activity curve [3]: 122000 | EC50 of NFκB-activation-induced Luciferase activity curve [3]: 0.097 nM
